Data set [1] deals with the molecule itself. As to the kind of experiment: SEC; Superdex 75 10/300 GL column, recombinant DrRuvC; 4 °C; buffers in Supplementary Table S1.
Data set [2] has as its target T1, DrRuvC (Deinococcus radiodurans, UniProt Q9RX75 1-179).
T1 sequence: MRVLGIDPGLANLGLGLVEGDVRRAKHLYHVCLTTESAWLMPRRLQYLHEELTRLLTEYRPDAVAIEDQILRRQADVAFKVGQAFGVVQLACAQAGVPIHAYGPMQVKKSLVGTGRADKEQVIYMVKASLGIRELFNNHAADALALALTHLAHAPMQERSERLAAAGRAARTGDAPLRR
As to the kind of experiment: EMSA; 1 mM EDTA; 0-500 nM protein; no significant difference from HJ-0X; 50 mM Tris-HCl pH 7.0, 100 mM NaCl, 1 mM EDTA, 1% glycerol, 50 nM 5'-FAM DNA, on ice 30 min, 5% native PAGE. The conditions noted are these: protein: recombinant; tags: N-terminal 6xHis (pET28a NdeI/BamHI); chain copies: 2; label: 5'-FAM on one strand; four-way junction, 12 bp homologous mobile core, 4 strands.

Data set [3] deals with T1, DrRuvC. In words: EMSA; 1 mM EDTA; 0-500 nM protein; 50 mM Tris-HCl pH 7.0, 100 mM NaCl, 1 mM EDTA, 1% glycerol, 50 nM 5'-FAM DNA, on ice 30 min, 5% native PAGE. The conditions noted are these: protein: recombinant; tags: N-terminal 6xHis (pET28a NdeI/BamHI); chain copies: 2; label: 5'-FAM on one strand; four-way junction, non-homologous core, immobile, 4 strands.
The target in data set [4] is T1, DrRuvC. As to the kind of experiment: EMSA; no stable shift up to 500 nM protein; 50 mM Tris-HCl pH 7.0, 100 mM NaCl, 1 mM EDTA, 1% glycerol, 50 nM 5'-FAM DNA, on ice 30 min, 5% native PAGE. The conditions noted are these: protein: recombinant, tags: N-terminal 6xHis (pET28a NdeI/BamHI), chain copies: 2, label: 5'-FAM on one strand.

B1: RuvC from Deinococcus radiodurans (DrRuvC), full-length (enzyme, UniProt Q9RX75 1-179, looked up)
chain: T1 sequence
notes: Holliday junction resolvase RuvC (DR_0440) of Deinococcus radiodurans, full length; has a C-terminal tail (residues 163-179); residues 1-154 of each monomer are seen in the crystal structure; Cloned into pET28a between NdeI and BamHI; the His tag is said to be on the protein used for crystallisation; also called DR_0440; source: E. coli BL21 (DE3), purified (nickel, desalting, Heparin ion …)
In the case of B1, the “stoichiometry N” value in data set [1] came out at 2.

B2: HJ-12X (structured_DNA)
DNA 1: GACGCTGCCGAATTCTGGCTTGCTAGGACATCTTTGCCCACGTTGACCCA
DNA 2: TGGGTCAACGTGGGCAAAGATGTCCTAGCAATGTAATCGTCTATGACGTT
DNA 3: AACGTCATAGACGATTACATTGCTAGGACATGCTGTCTAGAGACTATCGA
DNA 4: TCGATAGTCTCTAGACAGCATGTCCTAGCAAGCCAGAATTCGGCAGCGTC
For the molecule B2, in the data set with DrRuvC [2], the binding result is “binds”.

B3: HJ-0X (structured_DNA)
DNA 1: CCACCAGAAACACGCCACAGTTTTTGTTTTGATTGCGAGGCCGTCCTACC
DNA 2: GGTAGGACGGCCTCGCAATCAAAACTTTTTGAGCACGCGAGATGTCAACG
DNA 3: CGTTGACATCTCGCGTGCTCAAAAAAAAAACAGATGCGGAGTGAAGTTCC
DNA 4: GGAACTTCACTCCGCATCTGTTTTTAAAAACTGTGGCGTGTTTCTGGTGG
In the case of B3, the binding result in the data set with DrRuvC [3] is “binds”.

B4: flap (structured_DNA)
DNA 1: B3 DNA 1
DNA 2: B3 DNA 2
DNA 3: CGTTGACATCTCGCGTGCTCAAAAA
In the case of B4, the binding result in the data set with DrRuvC [4] (flap, 3 strands: S1 3' half with S4 5' half, S4 3' half with S5) is “no binding”.

B5: duplex (dsDNA)
DNA 1: B3 DNA 1
DNA 2: GGTAGGACGGCCTCGCAATCAAAACAAAAACTGTGGCGTGTTTCTGGTGG
For the molecule B5, the binding result with DrRuvC [4] (blunt) is “no binding”.

B6: bulge (dsDNA)
DNA 1: B3 DNA 1
DNA 2: GGTAGGACGGCCTCGCAATCTTTTGTTTTTCTGTGGCGTGTTTCTGGTGG
Consider B6, for which the binding result in the data set with DrRuvC [4] (internal unpaired bubble, blunt ends) is “no binding”.

B7: Y-junction (structured_DNA)
DNA 1: B3 DNA 1
DNA 2: B3 DNA 2
DNA 3: CGTTGACATCTCGCGTGCTCAAAAAAAAAACTGTGGCGTGTTTCTGGTGG
As for B7, in the data set with DrRuvC [4] (three-way junction, 3 strands), the binding result is recorded as “no binding”.
